Laboratory results taken from the supplement of paper PMC11136658.

System: peptide library, one residue held at a place counted from the Y acceptor
Experiment: relative phosphorylation of the sub-library (ratio to the mean residue at this position); higher = residue favoured
In short: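 Peptide library mixtures, biotinylated and centred on Tyr, each fixed one residue at one position from −5 to +5. Purified recombinant kinases were incubated with them for 90 min in 384-well plates alongside 50 μM ATP and γ-32P-ATP, and the captured, rinsed peptides on streptavidin membranes were measured by phosphorimaging and ImageQuant. Normalization divided each position's intensities by the sum of its 18 randomized residues (16 for the Ser/Thr-free library) and multiplied by that number, so that values give phosphorylation relative to the mean randomized residue.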

Sequence of NTRK2, construct: aa455-end, human (Q16620 455-822, looked up): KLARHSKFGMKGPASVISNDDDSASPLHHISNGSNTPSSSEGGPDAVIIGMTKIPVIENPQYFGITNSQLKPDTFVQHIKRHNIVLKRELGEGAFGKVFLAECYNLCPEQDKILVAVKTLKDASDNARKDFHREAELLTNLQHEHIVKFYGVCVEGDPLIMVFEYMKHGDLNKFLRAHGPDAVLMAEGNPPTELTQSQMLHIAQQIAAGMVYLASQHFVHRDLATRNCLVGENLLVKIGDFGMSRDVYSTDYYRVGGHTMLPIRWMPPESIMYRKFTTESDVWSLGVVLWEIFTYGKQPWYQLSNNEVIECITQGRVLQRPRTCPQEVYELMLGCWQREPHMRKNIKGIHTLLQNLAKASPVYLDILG

NTRK2, construct: aa455-end, human (from UniProt Q16620)
relative phosphorylation
Settings | at +1 | at +2 | at +3 | at +4 | at +5 | at -1 | at -2 | at -3 | at -4 | at -5
A fixed | 1.42 | 0.697 | 0.136 | 0.894 | 0.979 | 0.684 | 0.962 | 0.876 | 0.971 | 0.87
D fixed | 0.407 | 0.696 | 0.42 | 0.788 | 1.01 | 2.06 | 1.2 | 1.25 | 1.11 | 1.21
E fixed | 0.546 | 0.786 | 0.308 | 0.894 | 0.831 | 0.84 | 1.28 | 1.36 | 1.33 | 1.1
F fixed | 1.81 | 1.35 | 1.88 | 1.09 | 1.16 | 1.12 | 0.959 | 1.15 | 1.32 | 1.06
G fixed | 0.747 | 0.491 | 0.569 | 1.18 | 1.05 | 0.45 | 1.02 | 0.864 | 0.996 | 0.954
H fixed | 1.23 | 0.808 | 0.871 | 1.11 | 1.01 | 1.36 | 1.13 | 1.19 | 1.05 | 1.09
I fixed | 1.58 | 1.27 | 2.41 | 0.847 | 0.742 | 1.31 | 0.745 | 0.661 | 0.825 | 0.894
K fixed | 0.257 | 0.893 | 0.387 | 0.97 | 0.979 | 0.259 | 0.841 | 0.732 | 0.752 | 1.05
L fixed | 1.05 | 1.1 | 2.12 | 0.898 | 0.989 | 1.38 | 1.03 | 0.878 | 0.921 | 0.923
M fixed | 1.61 | 1.17 | 1.63 | 1.02 | 0.922 | 0.958 | 0.809 | 0.982 | 0.82 | 0.979
N fixed | 0.37 | 0.919 | 0.467 | 0.774 | 0.928 | 2.13 | 1.22 | 1.26 | 0.921 | 1.13
P fixed | 0.261 | 0.723 | 0.785 | 1.06 | 1.23 | 0.772 | 0.886 | 0.789 | 1.1 | 0.884
Q fixed | 0.811 | 0.927 | 0.546 | 0.993 | 0.912 | 0.907 | 1.08 | 0.964 | 1.12 | 1.09
R fixed | 0.266 | 1.16 | 0.65 | 0.997 | 1.03 | 0.258 | 0.877 | 0.785 | 0.84 | 1.06
S fixed | 0.824 | 0.914 | 0.728 | 0.965 | 1.06 | 0.713 | 1.15 | 1.11 | 0.774 | 0.872
T fixed | 0.776 | 0.897 | 0.702 | 0.838 | 0.914 | 0.805 | 0.888 | 0.93 | 0.635 | 0.776
V fixed | 2.18 | 1.24 | 1.69 | 0.911 | 0.83 | 1.17 | 0.802 | 0.769 | 0.81 | 0.806
W fixed | 1.85 | 1.95 | 1.72 | 1.76 | 1.42 | 0.822 | 1.11 | 1.46 | 1.71 | 1.25
pThr fixed | 1.17 | 0.567 | 0.302 | 0.689 | 0.807 | 0.824 | 0.828 | 0.83 | 0.932 | 0.913
pTyr fixed | 1.77 | 1.3 | 0.567 | 1.03 | 0.776 | 3.47 | 1.13 | 1.22 | 1.26 | 0.986
